Laboratory results published in publication doi:10.1101/2024.03.07.583849 (bioRxiv, 2024).
Values joined by “and” are separate entries in the source; they are usually repeats but may differ in a detail not shown here. Equal values may be shown once.

Molecular target: the molecule itself
Test: SEC

B1: Chlamydomonas reinhardtii alpha-amylase 2 (AMA2), recombinant full-length enzyme (enzyme, UniProt A0A2K3DGK5 1-706, looked up)
chain: MDRSLLSRTSPRMQLGRPQQLPPPTVPLAQVPRLQRRCVVGSRVCQPVVAVRPGRASAGRGGRLVVSSVDMSNSPLSSMDAGEGLDIMFDNNSDAECTVVTVEGKDKAHLLMSLTGGFSSAGLTVISASITSDDGRVLDVFRVQTADGKKVPEEQFPSVREHILSVTATSSRSSMPAIYGIVAAAEVERLKPLRSQSTQNDVDALELAAAEMTQAVAELVATERDIIRMRASNADARTLQTKEANRTEAAAGLERKMAAMQAVLAARRNLATEPEKPKSPTEKLLETLKPPTPMRAAAGAGSGSGSEILLQAFNWESHRQKLYKQLMGRVKDISDAGFTGVWMPPPSDSVSPQGYLPRDLYSLDSAYGSEAELRELIAAFHQNNIKVIADIVVNHRCANSQGSDGKWNKFGGRLAWDASAICSNNPSFGGRGNPKQGDDYAAAPNIDHSQERIRNDIVQWMKYLRNSIGFDGWRFDFVRGYLGSYCKQYIDETVPAMAFGEYWDSCEYTDGVLNYNQDAHRQRTVNWCDSTGGTSAAFDFTTKGILQEAVGRREYWRLVDSQGRPPGVMGMWPSRAITFIDNHDTGSTLNHWPFPSRNLPEGYAYILTHPGTPCVFYDHFYQEENNLRKIILDLLKVRRRNGLNARSKVVMKKSAADVYAAMIDDKVAVKLGPGDWSPNQSGIKVNGKELKVAASGFQFAVWEGQH
- stoichiometry N: 2 and 4
